Assay results from US20230134580A1 (SHANGHAI HENLIUS BIOTECH, published 2023).
Where two headings read alike, the source gives them in different places. Blank lines part the entries; values can stand above or below the binder they belong to.

Assays:
[1] = biological target: T1, human TIGIT (T cell immunoreceptor with Ig and ITIM domains), expressed on cells (human, UniProt Q495A1 22-244); test: cell-based or functional assay
T1 sequence: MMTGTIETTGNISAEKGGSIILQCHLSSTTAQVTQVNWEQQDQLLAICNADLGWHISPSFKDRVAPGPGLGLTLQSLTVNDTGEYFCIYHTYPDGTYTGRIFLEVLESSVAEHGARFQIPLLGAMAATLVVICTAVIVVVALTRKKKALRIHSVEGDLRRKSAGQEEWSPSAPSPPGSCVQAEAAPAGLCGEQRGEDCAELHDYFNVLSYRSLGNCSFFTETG

[2] = biological target: T1, human TIGIT (T cell immunoreceptor with …); test: flow cytometry, whole cell binding to Jurkat cells stably expressing human TIGIT; Alexa Fluor 488 anti-human IgG Fc secondary antibody
Excerpt: FIGS. 1A-1C depict whole cell binding of representative VHH bivalent antibodies to human TIGIT determined by flowcytometry assays. […] Y axis represents Mean Fluorescence Intensity of AlexaFlour 488. X axis represents antibody concentrations in nanomolar. […] FIG. 1C is a schematic of the structure of a TIGIT VHH bivalent antibody.
Jurkat cells stably expressing human TIGIT and NFAT reporter gene were established. Specifically, Jurkat cells were transfected with human TIGIT expression vector by electroporation, and cells stably expressing human TIGIT were selected by 1 μg/ml puromycin during cell culture. Representative antibody clones were incubated at different concentrations with h-TIGIT stably expressing Jurkat cells (0.2×10^6/ml) in 100 μl/well in 96-well plate in FACS buffer (PBS with 1.5% FBS) for 30 min. After washing, Alexaflour 488 conjugated anti-human IgG Fc secondary antibody (Alexa Fluor® 488 AffiniPure Goat Anti-Human IgG, Fcγ fragment specific, Jackson labs, 1:500 dilution) was added and incubated for 30 min. After washing, mean fluorescence intensity was measured using CytoFlex (Beckman Coulter) by gating live cell population. Binding affinity was calculated using GraphPad Prism.

[3] = biological target: T2, recombinant human TIGIT extracellular domain (ECD) (human, UniProt Q495A1 22-138); test: blocking ELISA, VHH clone against PVR binding to h-TIGIT
T2 construct: Bought protein (Arco Bio); also called h-TIGIT ECD; h-TIGIT
T2 sequence: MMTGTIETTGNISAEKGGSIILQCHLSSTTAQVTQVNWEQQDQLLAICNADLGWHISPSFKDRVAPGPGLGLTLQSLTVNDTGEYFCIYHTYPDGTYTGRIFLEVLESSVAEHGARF

[4] = biological target: T1, human TIGIT (T cell immunoreceptor with …); test: cell-based or functional assay; remark: listed apart in the source
[5] = biological target: T1, human TIGIT (T cell immunoreceptor with …); test: flow cytometry, whole cell binding to Jurkat cells stably expressing human TIGIT; anti-human IgG Fc AlexaFluor488
Description: Y axis is values of Mean Fluorescence Intensity of AlexaFlour 488. X axis is values of antibody concentrations in nanomolar.
The binding affinities of the humanized bivalent antibodies to human TIGIT were determined by whole cell binding to h-TIGIT stably expressed on Jurkat cells. Briefly, antibodies were incubated with h-TIGIT transfected Jurkat cells (0.2×10⁶/well in 100 μl) for 30 min in FACS buffer. The cells were washed once, then incubated with anti-human IgG Fc AlexaFluor488 (1:500).

[6] = biological target: T1, human TIGIT (T cell immunoreceptor with …); test: cell-based or functional assay; remark: listed apart in the source
[7] = biological target: T1, human TIGIT (T cell immunoreceptor with …); test: cell-based or functional assay; remark: listed apart in the source

B1: 2B7 bivalent VHH antibody (Fc fusion)
VHH: QVQLVESGGGLVQAGGSLRLACAASGRTFSSYPMGWFRQGPGKERESVAAISSDGRFTYYAASVKGRFTISKDNAKSAAFLQMNSLKPEDTAVYYCAARDSGSGYYSRAQWYDYWGQGTQVTVSS
notes: Bivalent VHH-CH2-CH3, ExpiCHO, Protein A purified
EC50 (read off the curve), NFAT luciferase reporter, TIGIT blockade [1]: ~1 nM
EC50 (read off the curve) [2]: ~0.2 nM

B2: 13H11 VHH (VHH)
VHH: QVQLVESGGGLVQAGGSLRLSCAASGLTFSMYAMGWFRQGPGKERESVAAISSDGRFTYYAASVKGRFTISKDNAKSAAFLQMNSLKPEDTAVYYCAARDSGSGYYSRAQWYDYWGQGTQVTVSS
notes: Tested as VHH in SS320 culture supernatant
% inhibition of PVR binding to h-TIGIT [3]: > 90%

B3: 1G1 VHH (VHH)
VHH: QVQLVESGGGLVQAGDSLRLSCVASGPSFSSYPMGWFRQGPGKERESVAAISSDGRFTYYAASVKGRFTISKDNAKSAAFLQMNSLKPEDTAVYYCAARDSGSGYYSRAQWYDYWGQGTLVTVSS
notes: as for B2
% inhibition of PVR binding to h-TIGIT [3]: > 90%

B4: 1G1-chimeric (1G1 bivalent VHH antibody) (Fc fusion)
chain: QVQLVESGGGLVQAGDSLRLSCVASGPSFSSYPMGWFRQGPGKERESVAAISSDGRFTYYAASVKGRFTISKDNAKSAAFLQMNSLKPEDTAVYYCAARDSGSGYYSRAQWYDYWGQGTLVTVSS
notes: Llama VHH of 1G1 with human IgG1 CH2 and CH3 domains; also called chimeric clone; not shown: human IgG1 CH2 and CH3 domains
EC50 (read off the curve), NFAT luciferase reporter, TIGIT blockade [1]: ~1 nM
EC50 (read off the curve) [2]: ~0.1 nM
EC50 (read off the curve), NFAT luciferase reporter, TIGIT blockade [4]: ~0.7 nM
EC50 (read off the curve) [5]: ~0.08 nM

B13: 1G1-F-G-ERES humanized bivalent antibody (Fc fusion)
VHH: QVQLVESGGGVVQPGRSLRLSCAASGPSFSSYPMGWFRQGPGKERESVAAISSDGRFTYYADSVKGRFTISRDNSKNTLYLQMNSLRAEDTAVYYCAARDSGSGYYSRAQWYDYWGQGTLVTVSS
notes: Humanized on germline IGHV-3-30*01
EC50 (read off the curve), NFAT luciferase reporter, TIGIT blockade [4]: 1 to 1.6 nM
EC50 (read off the curve) [5]: ~0.2 nM

B15: 2B10 VHH (VHH)
VHH: QVKLEESGGGLVQTGDSLRLSCAASSRIFRRYAMGWFRQAPGKEREFVAAITWSGASTTYTDSVKGRFTISRDSAENTTYLQMTSLRPEDTAVYYCAADPWGSVIVGTAEYEYWGQGTLVTVSS
notes: as for B2
% inhibition of PVR binding to h-TIGIT [3]: > 90%

B16: 1C12 VHH (VHH)
VHH: QVQLVESGGGLVQTGDSLRLSCAASSRIFSRYGMGWFRQAPGKEREFVAAISWNGASTTYTDSVKGRFTISRDSAENTTYLQINSLRPEDTAVYYCAADPWGAVKLGTAEYEYWGQGTQVTVSS
notes: as for B2
% inhibition of PVR binding to h-TIGIT [3]: > 90%

B17: 1C12-EREF humanized bivalent antibody (Fc fusion)
VHH: QVQLVESGGGVVQPGRSLRLSCAASSRIFSRYGMGWFRQAPGKEREFVAAISWNGASTTYTDSVKGRFTISRDNSKNTLYLQMNSLRAEDTAVYYCAADPWGAVKLGTAEYEYWGQGTQVTVSS
EC50 (read off the curve), NFAT luciferase reporter, TIGIT blockade [7]: ~2 nM

B18: 1C12-chimeric (1C12 bivalent VHH antibody) (Fc fusion, not shown: small tags and cut ends)
chain: QVQLVESGGGLVQTGDSLRLSCAASSRIFSRYGMGWFRQAPGKEREFVAAISWNGASTTYTDSVKGRFTISRDSAENTTYLQINSLRPEDTAVYYCAADPWGAVKLGTAEYEYWGQGTQVTVSS
EC50 (read off the curve), NFAT luciferase reporter, TIGIT blockade [7]: ~0.7 nM
EC50 (read off the curve), NFAT luciferase reporter, TIGIT blockade [1]: ~1 nM
EC50 (read off the curve), NFAT luciferase reporter, TIGIT blockade [4]: ~0.8 nM

B19: 1C12-EREW humanized bivalent antibody (Fc fusion)
VHH: QVQLVESGGGVVQPGRSLRLSCAASSRIFSRYGMGWFRQAPGKEREWVAAISWNGASTTYTDSVKGRFTISRDNSKNTLYLQMNSLRAEDTAVYYCAADPWGAVKLGTAEYEYWGQGTQVTVSS
EC50 (read off the curve), NFAT luciferase reporter, TIGIT blockade [7]: ~3 nM

B20: 1C12-GLEW humanized bivalent antibody (Fc fusion)
VHH: QVQLVESGGGVVQPGRSLRLSCAASSRIFSRYGMGWFRQAPGKGLEWVAAISWNGASTTYTDSVKGRFTISRDNSKNTLYLQMNSLRAEDTAVYYCAADPWGAVKLGTAEYEYWGQGTQVTVSS
EC50 (read off the curve), NFAT luciferase reporter, TIGIT blockade [7]: ~2 nM

Second part, the binder after the results:

% inhibition of PVR binding to h-TIGIT [3]: > 90%
B5: 2B7 VHH (VHH)
VHH: QVQLVESGGGLVQAGGSLRLACAASGRTFSSYPMGWFRQGPGKERESVAAISSDGRFTYYAASVKGRFTISKDNAKSAAFLQMNSLKPEDTAVYYCAARDSGSGYYSRAQWYDYWGQGTQVTVSS
notes: as for B2

% inhibition of PVR binding to h-TIGIT [3]: > 90%
B6: 15A5 VHH (VHH)
VHH: QVQLVESGGGLVQAGGSLRLSCAASERTFSSFAMGWFRQAPGKEREVVAAIDPSGRYIYYKDSVKGRFTMSRDNAKSTVYLQMNSLKPDDTARYYCAARIRGEGYYTRSSFYHYWGQGTQVTVSS
notes: as for B2

EC50 (read off the curve), NFAT luciferase reporter, TIGIT blockade [6]: ~3 nM
B7: 3G6 bivalent VHH antibody (Fc fusion)
VHH: QVQLVESGGGLVQAGGSLSLSCAASGSIFGISVMGWYRQAPGEQRDLVATLTRAGLTTYGDSVKGRFSISRDSAKNTVYLQMNNLKPEDTAVYYCHANIMESAASTFGRYWGQGTQVTVSS

% inhibition of PVR binding to h-TIGIT [3]: > 90%
B8: 3G6 VHH (VHH)
VHH: QVQLVESGGGLVQAGGSLSLSCAASGSIFGISVMGWYRQAPGEQRDLVATLTRAGLTTYGDSVKGRFSISRDSAKNTVYLQMNNLKPEDTAVYYCHANIMESAASTFGRYWGQGTQVTVSS
notes: as for B2

EC50 (read off the curve), NFAT luciferase reporter, TIGIT blockade [6]: ~0.3 nM
B9: 3F10 bivalent VHH antibody (Fc fusion)
VHH: QVQLVESGGGLVQAGGSLRLSCASSEHTFSNFPMGWFRQAPGKERNVVAAIDSSGRLTYYADSVKGRFTISKDNAKSTVYLQMNSLKSEDTARYYCAARTGGVGYYSRSSFYNYWGQGTLVTVSS

% inhibition of PVR binding to h-TIGIT [3]: > 90%
B10: 3F10 VHH (VHH)
VHH: QVQLVESGGGLVQAGGSLRLSCASSEHTFSNFPMGWFRQAPGKERNVVAAIDSSGRLTYYADSVKGRFTISKDNAKSTVYLQMNSLKSEDTARYYCAARTGGVGYYSRSSFYNYWGQGTLVTVSS
notes: as for B2

EC50 (read off the curve), NFAT luciferase reporter, TIGIT blockade [6]: ~1 nM
EC50 (read off the curve) [2]: ~0.3 nM
B11: 3G7 bivalent VHH antibody (Fc fusion)
VHH: QVQLVESGGGLVQAGDSLRLSCEASGRTLSTYTMGWFRRAPGKEREFVGLAWPSPSTYVVDSVKGRFTISRDNAKNTIYLQMNSLKPEDTAIYYCAADYKSLTQSWLNAALDYWGQGTQVTVSS
notes: as for B1

% inhibition of PVR binding to h-TIGIT [3]: > 90%
B12: 3G7 VHH (VHH)
VHH: QVQLVESGGGLVQAGDSLRLSCEASGRTLSTYTMGWFRRAPGKEREFVGLAWPSPSTYVVDSVKGRFTISRDNAKNTIYLQMNSLKPEDTAIYYCAADYKSLTQSWLNAALDYWGQGTQVTVSS
notes: as for B2

EC50 (read off the curve), NFAT luciferase reporter, TIGIT blockade [6]: ~0.7 nM
B14: 2B10 bivalent VHH antibody (Fc fusion)
VHH: QVKLEESGGGLVQTGDSLRLSCAASSRIFRRYAMGWFRQAPGKEREFVAAITWSGASTTYTDSVKGRFTISRDSAENTTYLQMTSLRPEDTAVYYCAADPWGSVIVGTAEYEYWGQGTLVTVSS
